Assay results: IntAct's records for PubMed 25910212

B1: Fructose-1,6-bisphosphatase 1 (Homo sapiens), P09467 (parent)
chain: MADQAPFDTDVNTLTRFVMEEGRKARGTGELTQLLNSLCTAVKAISSAVRKAGIAHLYGIAGSTNVTGDQVKKLDVLSNDLVMNMLKSSFATCVLVSEEDKHAIIVEPEKRGKYVVCFDPLDGSSNIDCLVSVGTIFGIYRKKSTDEPSEKDALQPGRNLVAAGYALYGSATMLVLAMDCGVNCFMLDPAIGEFILVDKDVKIKKKGKIYSLNEGYARDFDPAVTEYIQRKKFPPDNSAPYGARYVGSMVADVHRTLVYGGIFLYPANKKSPNGKLRLLYECNPMAYVMEKAGGMATTGKEAVLDVIPTDIHQRAPVILGSPDDVLEFLKVYEKHSAQ
partner: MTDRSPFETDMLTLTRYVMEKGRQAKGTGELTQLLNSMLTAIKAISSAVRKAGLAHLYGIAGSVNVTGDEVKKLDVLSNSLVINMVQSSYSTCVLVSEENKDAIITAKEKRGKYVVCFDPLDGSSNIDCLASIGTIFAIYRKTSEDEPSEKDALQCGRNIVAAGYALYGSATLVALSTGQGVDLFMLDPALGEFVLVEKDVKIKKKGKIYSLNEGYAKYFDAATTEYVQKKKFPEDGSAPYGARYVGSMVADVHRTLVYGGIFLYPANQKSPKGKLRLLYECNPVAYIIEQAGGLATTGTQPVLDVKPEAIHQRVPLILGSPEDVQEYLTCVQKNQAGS

Variants of: B1
Conditions: with FBP2, O00757

| Variant | effect of a mutation on the interaction |
| --- | --- |
| MADQAPFDTDVNTLTRFVMEEGRKARGTGELTQLLNSLCTAVKAISSAVRKAGIAHLYGIAGSTNVTGDQVKKLDVLSNDLVMNMLKSSFATCVLVSEEDKHAIIVEPEKRGKYVVCFDPLDGSSNIDCLVSVGTIFGIYRKKSTDEPSEKDALQPGRNLVAAGYALYGSATMLVLAMDCGVNCFMLDPAIGEFILVDKDVKIKKKGKIYSLNEGYAKDFDPAVTEYIQRKKFPPDNSAPYGARYVGSMVADVHRTLVYGGIFLYPANKKSPNGKLRLLYECNPMAYVMEKAGGMATTGKEAVLDVIPTDIHQRAPVILGSPDDVLEFLKVYEKHSAQ [R218K] | with no effect |
| MADQAPFDTDVNTLTRFVMEEGRKARGTGELTQLLNSLCTAVKAISSAVRKAGIAHLYGIAGSTNVTGDQVKKLDVLSNDLVMNMLKSSFATCVLVSEEDKHAIIVEPEKRGKYVVCFDPLDGSSNIDCLVSVGTIFGIYRKKSTDEPSEKDALQPGRNLVAAGYALYGSATMLVLAMDCGVNCFMLDPAIGESILVDKDVKIKKKGKIYSLNEGYARDFDPAVTEYIQRKKFPPDNSAPYGARYVGSMVADVHRTLVYGGIFLYPANKKSPNGKLRLLYECNPMAYVMEKAGGMATTGKEAVLDVIPTDIHQRAPVILGSPDDVLEFLKVYEKHSAQ [F194S] | disrupting interaction strength |

Further lines, results first:

| effect of a mutation on the interaction | Variant |
| --- | --- |
| with no effect | MADQAPFDTDVNTLTRFVMEEGRKARGTGELTQLLNSLCTAVKAISSAVRKAGIAHLYGIAGSTNVTGDQVKKLDVLSNDLVMNMLKSSFATCVLVSEEDKHAIIVEPEKRGKYVVCFDPLDGSSNIDCLVSVGTIFGIYRKKSTDEPSEKDALQPGRNLVAAGYALYGSATMLVLAMDCGVNCFMLDPAIGEFILVDKDVKIKKKGKIYSLNEGYARDFDPAVTEYIQRKKIPPDNSAPYGARYVGSMVADVHRTLVYGGIFLYPANKKSPNGKLRLLYECNPMAYVMEKAGGMATTGKEAVLDVIPTDIHQRAPVILGSPDDVLEFLKVYEKHSAQ [F233I] |
| disrupting interaction strength | MADQAPFDTDVNTLTRFVMEEGRKARGTGELTQLLNSLCTAVKAISSAVRKAGIAHLYGIAGSTNVTGDQVKKLDVLSNDLVMNMLKSSFATCVLVSEEDKHAIIVEPEKRGKYVVCFDPLDGSSNIDCLVSVGTIFGIYRKKSTDEPSEKDALQPGRNLVAAGYALYGSATMLVLAMDCGVNCFMLDPAIGEFILVDKDVKIKKKGKIYSLNEGYARDFDPAVTEYIQRKKFPPDNSAPYGARYVGSMVADVHRTLVYRGIFLYPANKKSPNGKLRLLYECNPMAYVMEKAGGMATTGKEAVLDVIPTDIHQRAPVILGSPDDVLEFLKVYEKHSAQ [G260R] |

Variants of: B1
Conditions: with FBP2, O00757
Remark: another data set of the same source

| effect of a mutation on the interaction | Variant |
| --- | --- |
| with no effect | MADQAPFDTDVNTLTRFVMEEGRKARGTGELTQLLNSLCTAVKAISSAVRKAGIAHLYGIAGSTNVTGDQVKKLDVLSNDLVMNMLKSSFATCVLVSEEDKHAIIVEPEKRGKYVVCFDPLDGSSNIDCLVSVGTIFGIYRKKSTDEPSEKDALQPGRNLVAAGYALYGSATMLVLAMDCGVNCFMLDPAIGEFILVDKDVKIKKKGKIYSLNEGYARDFDPAVTEYIQRKKFPPDNSAPYGARYVGSMVADVHRTLVYRGIFLYPANKKSPNGKLRLLYECNPMAYVMEKAGGMATTGKEAVLDVIPTDIHQRAPVILGSPDDVLEFLKVYEKHSAQ [G260R] |
| with no effect | MADQAPFDTDVNTLTRFVMEEGRKARGTGELTQLLNSLCTAVKAISSAVRKAGIAHLYGIAGSTNVTGDQVKKLDVLSNDLVMNMLKSSFATCVLVSEEDKHAIIVEPEKRGKYVVCFDPLDGSSNIDCLVSVGTIFGIYRKKSTDEPSEKDALQPGRNLVAAGYALYGSATMLVLAMDCGVNCFMLDPAIGEFILVDKDVKIKKKGKIYSLKEGYARDFDPAVTEYIQRKKFPPDNSAPYGARYVGSMVADVHRTLVYGGIFLYPANKKSPNGKLRLLYECNPMAYVMEKAGGMATTGKEAVLDVIPTDIHQRAPVILGSPDDVLEFLKVYEKHSAQ [N213K] |
| with no effect | MADQAPFDTDVNTLTRFVMEEGRKARGTGELTQLLNSLCTAVKAISSAVRKAGIAHLYGIAGSTNVTGDQVKKLDVLSNDLVMNMLKSSFATCVLVSEEDKHAIIVEPEKRGKYVVCFDPLDGSSNIDCLVSVGTIFGIYRKKSTDEPSEKDALQPGRNLVAAGYALYGSATMLVLAMDCGVNCFMLDPAIGESILVDKDVKIKKKGKIYSLNEGYARDFDPAVTEYIQRKKFPPDNSAPYGARYVGSMVADVHRTLVYGGIFLYPANKKSPNGKLRLLYECNPMAYVMEKAGGMATTGKEAVLDVIPTDIHQRAPVILGSPDDVLEFLKVYEKHSAQ [F194S] |
